The values below come from patent US20210388087A1 (Chugai, published 2021).

B1: CE115HA000 G100bD one-arm antibody (antibody, human IgG1, kappa, L234A L235A, N297A, name in Kabat numbering)
heavy: QVQLVESGGGVVQPGRSLRLSCAASGFTFSNAWMHWVRQAPGKGLEWVAQIKAKSNNYATYYAESVKGRFTISRDDSKNSLYLQMNSLKTEDTAVYYCRYVHYGAYYDVDAWGQGTTVTVSSASTKGPSVFPLAPSSKSTSGGTAALGCLVKDYFPEPVTVSWNSGALTSGVHTFPAVLQSSGLYSLSSVVTVPSSSLGTQTYICNVNHKPSNTKVDKKVEPKSCDKTHTCPPCPAPEAAGGPSVFLFPPKPKDTLMISRTPEVTCVVVDVSHEDPEVKFNWYVDGVEVHNAKTKPREEQYASTYRVVSVLTVLHQDWLNGKEYKCKVSNKALPAPIEKTISKAKGQPREPQVYTLPPSRCELTKNQVSLSCAVKGFYPSDIAVEWESNGQPENNYKTTPPVLDSDGSFFLVSKLTVDKSRWQQGNVFSCSVMHEALHNHYTQKSLSLSPDYKDDDDK
chain: EPKSSDKTHTCPPCPAPELLGGPSVFLFPPKPKDTLMISRTPEVTCVVVDVSHEDPEVKFNWYVDGVEVHNAKTKPREEQYNSTYRVVSVLTVLHQDWLNGKEYKCKVSNKALPAPIEKTISKAKGQPREPQVCTLPPSRDELTKNQVSLWCLVKGFYPSDIAVEWESNGQPENNYKTTPPVLDSDGSFFLYSKLTVDKSRWQQGNVFSCSVMHEALHNRYTQKSLSLSP
light: DIVMTQSPLSLPVTPGEPASISCRSSQSLVHSNRNTYLHWYQQKPGQAPRLLIYKVSNRFSGVPDRFSGSGSGTDFTLKISRVEAEDVGVYYCGQGTQVPYTFGQGTKLEIKRTVAAPSVFIFPPSDEQLKSGTASVVCLLNNFYPREAKVQWKVDNALQSGNSQESVTEQDSKDSTYSLSSTLTLSKADYEKHKVYACEVTHQGLSSPVTKSFNRGEC
B2: CE115HA000 H35M one-arm antibody (antibody, human IgG1, kappa, L234A L235A, N297A, name in Kabat numbering)
heavy: B1 heavy with H35M, D108G
chain: B1 chain
light: B1 light
B3: CE115HA000 H35I one-arm antibody (antibody, human IgG1, kappa, L234A L235A, N297A, name in Kabat numbering)
heavy: B1 heavy with H35I, D108G
chain: B1 chain
light: B1 light
B4: CE115HA000 G100bE one-arm antibody (antibody, human IgG1, kappa, L234A L235A, N297A, name in Kabat numbering)
heavy: B1 heavy with D108E
chain: B1 chain
light: B1 light
B5: CE115HA000 H96P one-arm antibody (antibody, human IgG1, kappa, L234A L235A, N297A, name in Kabat numbering)
heavy: B1 heavy with H102P, D108G
chain: B1 chain
light: B1 light
B6: CE115HA000 H35K one-arm antibody (antibody, human IgG1, kappa, L234A L235A, N297A, name in Kabat numbering)
heavy: B1 heavy with H35K, D108G
chain: B1 chain
light: B1 light
B7: CE115HA000 H35N one-arm antibody (antibody, human IgG1, kappa, L234A L235A, N297A, name in Kabat numbering)
heavy: B1 heavy with H35N, D108G
chain: B1 chain
light: B1 light
B8: CE115HA000 H35Q one-arm antibody (antibody, human IgG1, kappa, L234A L235A, N297A, name in Kabat numbering)
heavy: B1 heavy with H35Q, D108G
chain: B1 chain
light: B1 light
B9: CE115HA000 H35E one-arm antibody (antibody, human IgG1, kappa, L234A L235A, N297A, name in Kabat numbering)
heavy: B1 heavy with H35E, D108G
chain: B1 chain
light: B1 light
B10: CE115HA000 G100bS one-arm antibody (antibody, human IgG1, kappa, L234A L235A, N297A, name in Kabat numbering)
heavy: B1 heavy with D108S
chain: B1 chain
light: B1 light
B11: CE115HA000 H35S one-arm antibody (antibody, human IgG1, kappa, L234A L235A, N297A, name in Kabat numbering)
heavy: B1 heavy with H35S, D108G
chain: B1 chain
light: B1 light
B12: CE115HA000 H96G one-arm antibody (antibody, human IgG1, kappa, L234A L235A, N297A, name in Kabat numbering)
heavy: B1 heavy with H102G, D108G
chain: B1 chain
light: B1 light
B13: CE115HA000 H35V one-arm antibody (antibody, human IgG1, kappa, L234A L235A, N297A, name in Kabat numbering)
heavy: B1 heavy with H35V, D108G
chain: B1 chain
light: B1 light
B14: CE115HA000 H35Y one-arm antibody (antibody, human IgG1, kappa, L234A L235A, N297A, name in Kabat numbering)
heavy: B1 heavy with H35Y, D108G
chain: B1 chain
light: B1 light
B15: CE115HA000 H35F one-arm antibody (antibody, human IgG1, kappa, L234A L235A, N297A, name in Kabat numbering)
heavy: B1 heavy with H35F, D108G
chain: B1 chain
light: B1 light
B16: CE115HA000 H96K one-arm antibody (antibody, human IgG1, kappa, L234A L235A, N297A, name in Kabat numbering)
heavy: B1 heavy with H102K, D108G
chain: B1 chain
light: B1 light
B17: CE115HA000 H96Q one-arm antibody (antibody, human IgG1, kappa, L234A L235A, N297A, name in Kabat numbering)
heavy: B1 heavy with H102Q, D108G
chain: B1 chain
light: B1 light
B18: CE115HA000 H35G one-arm antibody (antibody, human IgG1, kappa, L234A L235A, N297A, name in Kabat numbering)
heavy: B1 heavy with H35G, D108G
chain: B1 chain
light: B1 light
B19: CE115HA000 H35T one-arm antibody (antibody, human IgG1, kappa, L234A L235A, N297A, name in Kabat numbering)
heavy: B1 heavy with H35T, D108G
chain: B1 chain
light: B1 light
B20: CE115HA000 G100bL one-arm antibody (antibody, human IgG1, kappa, L234A L235A, N297A, name in Kabat numbering)
heavy: B1 heavy with D108L
chain: B1 chain
light: B1 light
B21: CE115HA000 H35D one-arm antibody (antibody, human IgG1, kappa, L234A L235A, N297A, name in Kabat numbering)
heavy: B1 heavy with H35D, D108G
chain: B1 chain
light: B1 light
B22: CE115HA000 H35W one-arm antibody (antibody, human IgG1, kappa, L234A L235A, N297A, name in Kabat numbering)
heavy: B1 heavy with H35W, D108G
chain: B1 chain
light: B1 light
B23: CE115HA000 H96R one-arm antibody (antibody, human IgG1, kappa, L234A L235A, N297A, name in Kabat numbering)
heavy: B1 heavy with H102R, D108G
chain: B1 chain
light: B1 light
B24: CE115HA000 H96L one-arm antibody (antibody, human IgG1, kappa, L234A L235A, N297A, name in Kabat numbering)
heavy: B1 heavy with H102L, D108G
chain: B1 chain
light: B1 light
B25: CE115HA000 H96S one-arm antibody (antibody, human IgG1, kappa, L234A L235A, N297A, name in Kabat numbering)
heavy: B1 heavy with H102S, D108G
chain: B1 chain
light: B1 light
B26: CE115HA000 H35R one-arm antibody (antibody, human IgG1, kappa, L234A L235A, N297A, name in Kabat numbering)
heavy: B1 heavy with H35R, D108G
chain: B1 chain
light: B1 light
B27: CE115HA000 I51D one-arm antibody (antibody, human IgG1, kappa, L234A L235A, N297A, name in Kabat numbering)
heavy: B1 heavy with I51D, D108G
chain: B1 chain
light: B1 light
B28: CE115HA000 H96Y one-arm antibody (antibody, human IgG1, kappa, L234A L235A, N297A, name in Kabat numbering)
heavy: B1 heavy with H102Y, D108G
chain: B1 chain
light: B1 light
B29: CE115HA000 G100bF one-arm antibody (antibody, human IgG1, kappa, L234A L235A, N297A, name in Kabat numbering)
heavy: B1 heavy with D108F
chain: B1 chain
light: B1 light
B30: CE115HA000 G100bY one-arm antibody (antibody, human IgG1, kappa, L234A L235A, N297A, name in Kabat numbering)
heavy: B1 heavy with D108Y
chain: B1 chain
light: B1 light
B31: CE115HA000 H35L one-arm antibody (antibody, human IgG1, kappa, L234A L235A, N297A, name in Kabat numbering)
heavy: B1 heavy with H35L, D108G
chain: B1 chain
light: B1 light

Numbering of substitutions follows the chain as printed. In names and notes the source's numbering stands.

T1 sequence (P07766 23-126): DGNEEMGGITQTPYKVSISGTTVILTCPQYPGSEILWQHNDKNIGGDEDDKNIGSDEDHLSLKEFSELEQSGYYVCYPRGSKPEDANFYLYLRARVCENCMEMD

This assay concerns the target T1, CD3 epsilon homodimer protein (UniProt P07766 23-126).
T1 construct: immobilized on Sensor chip CM4 by amine coupling; also called CD3 (CD3 epsilon)
Description: SPR (Biacore T200), CD3 epsilon homodimer on CM4 chip, one-arm antibody as analyte, 25 C.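 Also: homodimer attached to the sensor surface via amine coupling, HBS-EP+ used as running buffer during binding runs.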
For B1, the “ratio of amounts bound (altered form / CE115HA000)” value is 0.27. Take B2: the “ratio of amounts bound (altered form / CE115HA000)” value was determined as 0.29. With B3, the “ratio of amounts bound (altered form / CE115HA000)” value was determined as 0.12. B4: the “ratio of amounts bound (altered form / CE115HA000)” value was 0.26. The result for B5 reads 0.12.

B6: the “ratio of amounts bound (altered form / CE115HA000)” value stood at 0.15. Next, B7: 0.35. Next, B8: 0.13. On to B9, for which the “ratio of amounts bound (altered form / CE115HA000)” value came out at 0.19.

On to B10, for which the “ratio of amounts bound (altered form / CE115HA000)” value amounted to 0.52. For B11, the “ratio of amounts bound (altered form / CE115HA000)” value came to 0.23.

In the case of B12, the “ratio of amounts bound (altered form / CE115HA000)” value amounted to 0.43.

Regarding B13, the “ratio of amounts bound (altered form / CE115HA000)” value is 0.22. The result for B14 reads 0.16; that for B15, 0.21. Next, B16: 0.38; B17: 0.42.

B18: the “ratio of amounts bound (altered form / CE115HA000)” value was 0.22. Next, B19: 0.26; B20: 0.27.

On to B21, for which the “ratio of amounts bound (altered form / CE115HA000)” value was 0.2. In the case of B22, the “ratio of amounts bound (altered form / CE115HA000)” value worked out at 0.22.

B23: the “ratio of amounts bound (altered form / CE115HA000)” value is 0.46. Take B24: the “ratio of amounts bound (altered form / CE115HA000)” value amounted to 0.14. The result for B25 reads 0.44; that for B26, 0.14.

For B27, the “ratio of amounts bound (altered form / CE115HA000)” value worked out at 0.29. Next, B28: 0.17; B29: 0.3. Take B30: the “ratio of amounts bound (altered form / CE115HA000)” value was determined as 0.23. The result for B31 reads 0.11.
